Among the data in the supplement of paper PMC10567573 are protein stability index values, retold here.

The series in a line: protein stability index of a GFP-peptide fusion (GPS, HEK-293T) (PSI 1-6); higher = more stable. Particulars: c terminus: a fixed tail appended.

± gives the standard deviation.
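Further: 24-mer peptide tiles fused after GFP, lentivirally expressed, FACS-sorted into six equal bins by GFP/DsRed ratio, decoded by Illumina sequencing, PSI is the read-weighted mean bin number.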

Sequence EETKKLANKYLVEDVLLLNFEEMR [KLHL14] registered a protein stability index (treatment: DMSO) of 3.23 ± 0.23 and a protein stability index (treatment: MLN4924 1 uM, 8 h) of 3.18 ± 0.27.
The matching figures for EFDSEHNLTSNEGHSLKNLEHRLN [RASAL3]: 4.82 ± 0.49 and 4.67 ± 0.49.
As for EFEEATGEAGWGAGEGRLGHKRKQ [FOXJ1], the protein stability index by setting is: (treatment: DMSO) 5.26 ± 0.39; (treatment: MLN4924 1 uM, 8 h) 5.19 ± 0.5.
For EFQERARKRIRTYLKSCRRMKKNG [NOL4L], in that order: 3.31 ± 0.19 and 3.19 ± 0.23.
With EGAIVMARGRHVGSSETNLLQHLL [PYCR3], the protein stability index is, setting by setting: (treatment: DMSO) 3.25 ± 0.78; (treatment: MLN4924 1 uM, 8 h) 3.18 ± 0.08.
For EGARAAGLGELGAALLQLVRRLQA [ESRRA], in that order: 3.04 ± 0.44 and 3 ± 0.18.
Turning to EGGDESDLSSESSIKKKFLKRKGK [EHMT1], the protein stability index reads like this: (treatment: DMSO) 5.54 ± 0.22; (treatment: MLN4924 1 uM, 8 h) 5.34 ± 0.56.
For EGHSIVGFAMYYFTYDPWIGKLLY [SAT1], in that order: 3.07 ± 0.16 and 3.02 ± 0.99.
For EGKAPIISGVTKAISSPTVSRLTD [TPPP], in that order: 4.52 ± 0.2 and 4.51 ± 0.36.
In the case of EGPALVEIDRSVENTLLNSQMVST [MIA2], the protein stability index reads like this: (treatment: DMSO) 4.54 ± 0.26; (treatment: MLN4924 1 uM, 8 h) 4.63 ± 0.22.
The matching figures for EGSRKSSRVKGSAPEIDPSSDGSN [KMT2E]: 5.36 ± 0.17 and 5.21 ± 0.18.
For EHKSLESLADGGSASPIKDQPVMA [FANCE], the protein stability index (treatment: DMSO) stood at 5.43 ± 0.27 and the protein stability index (treatment: MLN4924 1 uM, 8 h) amounted to 5.32 ± 0.2.
The matching figures for EIAQYLLEKGADVNRKSVKGNTAL [FEM1C]: 2.58 ± 0.35 and 2.64 ± 0.3.
The matching figures for EIDTPDKFGRTCLHAAAAGGNVEC [ANKRD44]: 4.24 ± 0.16 and 4.37 ± 0.23.
As to EILGCPLPDPNNYYHRRNEMTTTD [CPXM2], the protein stability index runs as follows: (treatment: DMSO) 3.24 ± 0.21; (treatment: MLN4924 1 uM, 8 h) 3.54 ± 0.56.
The matching figures for EILLHPWFESVLEPGYIDSEIGTS [TRIB1]: 2.44 ± 0.29 and 2.56 ± 0.43.
For EKKKGKAKKKRLTKADIGTPSNFQ [WASL], in that order: 4.62 ± 0.099 and 4.63 ± 0.062.
As to EKKRKEEEERRRREEEERERLQKE [ACBD3], the protein stability index reads like this: (treatment: DMSO) 5.45 ± 0.36; (treatment: MLN4924 1 uM, 8 h) 5.49 ± 0.25.
For EKLITWLNKELNENQLVRKQDVLG [SASS6], in that order: 2.12 ± 0.44 and 3.1 ± 0.26.
For EKSLDQLKSISAEEILTLFCGAPP [PHTF1], in that order: 3.02 ± 0.21 and 3.3 ± 0.15.
Turning to EKVNEGKYRSYEEFKADAQLLLHN [ZMYND11], the protein stability index reads like this: (treatment: DMSO) 4.1 ± 0.13; (treatment: MLN4924 1 uM, 8 h) 3.79 ± 0.28.
As for ELDELQAAFEEFDTDRDGYISHRE [CABP4], the protein stability index is, setting by setting: (treatment: DMSO) 5.26 ± 0.25; (treatment: MLN4924 1 uM, 8 h) 5.32 ± 0.15.
The matching figures for ELIFSARVLDGKEAKAVGLISHVL [AUH]: 2.58 ± 0.92 and 2.18 ± 0.25.
ELLVAHAYTRYLGDLSGGQVLKKI [HMOX1]: the protein stability index is 2.23 ± 0.86 (treatment: DMSO) and 2.32 ± 0.3 (treatment: MLN4924 1 uM, 8 h).
Consider ELSGAPRCHTVPCAGSTALQEPGE [PXN], for which the protein stability index came to 4.9 ± 0.28 (treatment: DMSO) and 5.05 ± 0.32 (treatment: MLN4924 1 uM, 8 h).
Regarding EMKLQKNFLTQRENTIAGANHTHT [C10orf62], the protein stability index (treatment: DMSO) was found to be 3.78 ± 0.44 and the protein stability index (treatment: MLN4924 1 uM, 8 h) turned out to be 3.65 ± 0.4.
For ENLIRERSQQQEPLLCPSYQSYFK [KRT33B], in that order: 3.39 ± 0.26 and 3.59 ± 0.59.
With EQKVLSRLVESLSTQIRALTEQQE [RASAL3], the protein stability index reads like this: (treatment: DMSO) 2.65 ± 0.046; (treatment: MLN4924 1 uM, 8 h) 2.76 ± 0.19.
Regarding EQQTMDNLEKQLICPICLEMFTKP [TRIM55], the protein stability index (treatment: DMSO) came out at 3.77 ± 0.38 and the protein stability index (treatment: MLN4924 1 uM, 8 h) turned out to be 4.14 ± 0.38.
For ERIQELEDLLAKEKDNSRRMLTDK [LMNB1], in that order: 4.85 ± 0.29 and 4.91 ± 0.34.
For ERKNAEMYKLSSEQFHEAASKMES [CHCHD6], in that order: 4.83 ± 0.27 and 5.08 ± 0.16.
Take ERLTAPEILLHPWFESVLEPGYID [TRIB1]: the protein stability index runs as follows: (treatment: DMSO) 3.26 ± 0.21; (treatment: MLN4924 1 uM, 8 h) 3.3 ± 0.3.
For ERPQDRDTPVQNKRRRSVTPPEEQ [CDC25B], in that order: 5.34 ± 0.18 and 5.32 ± 0.23.
For ERQGNGQQAMSLAILRVIRLVRVF [KCNA3], in that order: 2.3 ± 0.13 and 2.56 ± 0.59.
The matching figures for ERSLVLDRLASNVAKRKSSMPQKF [IKZF1]: 3.6 ± 0.23 and 3.84 ± 0.29.
For the sequence ESHATLTLAQAHFNNGEYAEAEAL [TTC32], the protein stability index worked out at 5.19 ± 0.2 (treatment: DMSO) and 5.04 ± 0.15 (treatment: MLN4924 1 uM, 8 h).
